T1: DEK (Homo sapiens, UniProt P35659 P35659:1-375)
T1 sequence: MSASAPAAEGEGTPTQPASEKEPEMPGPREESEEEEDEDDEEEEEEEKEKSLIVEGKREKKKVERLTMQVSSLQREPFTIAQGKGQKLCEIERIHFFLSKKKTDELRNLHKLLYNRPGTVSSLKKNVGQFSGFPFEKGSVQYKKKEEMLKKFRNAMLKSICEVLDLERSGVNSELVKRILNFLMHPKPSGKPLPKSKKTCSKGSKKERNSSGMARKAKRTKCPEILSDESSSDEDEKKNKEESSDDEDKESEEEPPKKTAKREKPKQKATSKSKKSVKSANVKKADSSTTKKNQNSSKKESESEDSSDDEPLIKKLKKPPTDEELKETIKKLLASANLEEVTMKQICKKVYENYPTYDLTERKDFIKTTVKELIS


Biological target: T1, DEK
Assay: Southwestern blot on denatured DEK with salmon sperm DNA competitor; 300 mM NaCl wash; not quantitated; clones preselected by dot blot filter binding
Conditions: tags: His-tag (pBlueBacHis2A baculovirus, HighFive cells, Ni-NTA purified); label: 5'-32P
Method: After determining the sequences of individual aptamer clones, the corresponding DNA oligonucleotides with and without 5′ and 3′ priming sequences were ordered from IDT (Coralville, Iowa), and radiolabeled with ³²P according to the NEB T4 Kinase kit protocol as above. Binding was then tested using a southwestern blot of purified DEK protein. A conventional western blot was performed using PVDF Immobillon P (EMDMillipore, Darmstadt, Germany). After the transfer, the membrane was soaked in PreHyb buffer [(10 mM Hepes (pH 7.9), 100 ug/mL salmon sperm DNA (Sigma-Aldrich, St. Louis, Mo.), 5% bovine serum albumin (Sigma-Aldrich, St. Louis, Mo.)] for 30 min on the shaker at room temperature to block the membrane. The PreHyb buffer was then removed and 5 mL of Hyb Buffer [(10 mM Hepes (pH 7.9), 50 mM NaCl, 1 mM EDTA, 1 mM DTT, 0.25% BSA, 2 ug/ul salmon sperm DNA, 50 million CPM aptamer)] was added and incubated on the shaker at room temperature for one hour. The Hyb Buffer was removed and the membrane was washed 3× on the shaker at room temperature for 20 min with wash buffer [(10 mM Hepes (pH 7.9), 300 mM NaCl, 1 mM EDTA, 1 mM DTT, 0.25% BSA)]. The membranes were dried and exposed on a Typhoon Phosphor imager (GE Healthcare, Pittsburgh, Pa.) cassette overnight to visualize the radiolabeled DNA bound to the bands corresponding to DEK protein. […] No quantitation was determined.

| Binder | binding result |
| --- | --- |
| DEK aptamer 64 (ssDNA) DNA: ATAGGGAGTCGACCGACCAGAAGGGGTTAAATATTCCCACATTGCCTGCGCCAGTACAAATAGTATGTGCGTCTACATCTAGACT | binds |
| DEK aptamer 85 (ssDNA) DNA: ATAGGGAGTCGACCGACCAGAATACCGTGGCATCTGGTTGTAGCATCACGTCTTATGCGGCCGTATGTGCGTCTACATCTAGACT | binds |
